Test results as given in paper PMC11446229, “CyaY and TusA regulate ISC- and SUF-mediated L-cysteine desulfurase activity†” (RSC Chemical Biology, 2024).

T1: SufSE complex (SufS dimer with bound SufE), formed before CyaY was added (E. coli, UniProt P77444 1-406; P76194 1-138)
T1 construct: SufS, L-cysteine desulfurase of E. coli, as the chain of m4; SufE of E. coli, as the chain of m5; A mixture of complexes: mainly one or two SufE on each SufS dimer, with some (SufE)3(SufS)2 before CyaY was added; In the activity assay 30 uM SufS plus 90 uM SufE; also called SufE–SufS complexes; SufS/SufE; source: mixed from SufS and SufE, each purified from E. coli BL21 DE3; copies: 2 +
T1 sequence (looked up) 1: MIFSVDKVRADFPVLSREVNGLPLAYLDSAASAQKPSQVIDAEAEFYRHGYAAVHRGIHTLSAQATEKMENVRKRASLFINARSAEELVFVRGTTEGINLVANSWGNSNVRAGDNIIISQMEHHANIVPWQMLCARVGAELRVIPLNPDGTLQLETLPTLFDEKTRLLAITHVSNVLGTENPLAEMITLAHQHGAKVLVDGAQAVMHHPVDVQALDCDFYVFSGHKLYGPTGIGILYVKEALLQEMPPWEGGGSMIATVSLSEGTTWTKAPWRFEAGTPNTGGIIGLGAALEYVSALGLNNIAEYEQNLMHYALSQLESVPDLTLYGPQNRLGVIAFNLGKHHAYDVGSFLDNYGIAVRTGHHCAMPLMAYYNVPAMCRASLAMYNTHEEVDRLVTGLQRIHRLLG
T1 sequence (looked up) 2: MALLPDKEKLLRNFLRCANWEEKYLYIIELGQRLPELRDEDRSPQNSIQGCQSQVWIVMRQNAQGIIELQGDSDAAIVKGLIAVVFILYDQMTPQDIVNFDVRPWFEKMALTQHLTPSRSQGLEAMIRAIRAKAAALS

B1: CyaY, the frataxin homolog of Escherichia coli (natural protein, E. coli, UniProt P27838 1-106, looked up)
chain: MNDSEFHRLADQLWLTIEERLDDWDGDSDIDCEINGGVLTITFENGSKIIINRQEPLHQVWLATKQGGYHFDLKGDEWICDRSGETFWDLLEQAATQQAGETVSFR
notes: CyaY, frataxin homolog of E. coli; Two plasmids are named (pET15b or pMB10); also called CyaY-(His)6; source: E. coli BL21 DE3, plasmid pET15b or pMB10, purified, (His)6-tag cleaved with thrombin
B2: SufS, cysteine desulfurase of the SUF system (enzyme, E. coli, UniProt P77444 1-406, looked up)
chain: T1 sequence (looked up) 1
notes: SufS, L-cysteine desulfurase of E. coli; Seen by native MS as a dimer with associated PLP cofactors (89 956 Da; predicted 89 892 Da + (S0)2); Surmise: the predicted mass is larger than two natural chains plus two PLP, so a few residues may be left on each chain after thrombin cleavage; also called (SufS)2; dimeric SufS; source: E. coli BL21 DE3, plasmid pSL213, purified, (His)6-tag cleaved with …
B3: SufE (natural protein, E. coli, UniProt P76194 1-138, looked up)
chain: T1 sequence (looked up) 2
notes: SufE, sulfur acceptor of SufS, E. coli; Tag cleavage is told only of SufS and CyaY; Surmise: the printed mass interval of ~16.7 kDa for each SufE is larger than the natural chain, so the tag may have been kept; also called SufE-(His)6; source: E. coli BL21 DE3, plasmid pET15b, purified (previously published procedures)

Key:
[1] = target: T1, SufSE complex (SufS dimer with bound …); assay: native MS; pre-formed SufSE complexes treated with a 4-fold excess of CyaY and titrated with CyaY up to about 35 uM; 250 mM ammonium acetate pH 8; only the first part of the titration measured, Kd an approximation; settings: both partners purified
[2] = target: T2, IscS, cysteine desulfurase of the ISC system (E. coli, UniProt P0A6B7 1-404); assay: native MS; IscS (8 uM, 4 uM dimer) pre-treated with 0.5 equivalents of TusA (4 uM), then titrated with CyaY; 250 mM ammonium acetate pH 8; relative intensities fitted to a simple competition binding model (Dynafit); settings: both partners purified
T2 construct: IscS, L-cysteine desulfurase of E. coli; Seen by native MS as a dimer with associated PLP cofactors (90 662 Da; predicted 90 642 Da + Na); No tag is named for this construct; Surmise: the predicted mass fits two untagged whole chains plus two PLP; also called (IscS)2; dimeric IscS; source: E. coli BL21 DE3, plasmid pSL209, purified (previously published procedures)

[3] = target: the molecule itself; assay: native MS; desulfurase alone, ~8 uM (~4 uM dimer), 250 mM ammonium acetate pH 8.0, deconvoluted spectrum
[4] = target: B2; assay: native MS; SufS (~8 uM, ~4 uM dimer) titrated with SufE; 250 mM ammonium acetate pH 8; relative intensities fitted to a sequential binding model (Dynafit); settings: both partners purified

Binder: B1
- Kd [1]: ~70 µM
- Kd [2]: ~26 µM
- stoichiometry N [2]: ≤ 2 per IscS dimer

Binder: B2
- stoichiometry N [3]: 2

Binder: B3
- Kd of the first and second SufE on the SufS dimer (high affinity site) [4]: ~8 µM
- Kd of the third and fourth SufE on the SufS dimer (low affinity site) [4]: ~71 µM
- stoichiometry N [4]: ≤ 4 per SufS dimer
